Reference: patent US10865390B2, “Alcohol dehydrogenase mutant and application thereof in synthesis of diaryl chiral alcohols” (Jiangnan University, priority 2018, dated 2020)
Several values for one entry are separate records, joined by “and”; a condition that tells them apart may be missing. Equal values may be shown once.

Experiments:
Format in all cases: biochemical
[1] = system: O=C(c1ccc(Cl)cc1)c1ccccn1; assay: Kinetic analysis of KpADH mutant M2 with CPMK; settings: other: M2, NADPH, pH 7.0, 30° C.
Experimental: In an embodiment of the present disclosure, the mutant includes the substitution of valine for glutamic acid at position 214 of the alcohol dehydrogenase with the amino acid sequence shown in SEQ ID No. 2, which is named M2.
(§1) Adopting a total reaction system of 200 μL including: 1.0 mM NADPH, 1.0 mM substrate CPMK and sodium phosphate buffer (PBS, 100 mM, pH 7.0), fully and evenly mixing, maintaining at 30° C. for 2 min, adding an appropriate amount of enzyme solution, and detecting the change in light absorption at 340 nm.
(§2) The enzyme activity was calculated by the following formula: Enzyme activity (U)=EW×V×10^3/(6220×1);
(§3) in the formula, EW is the change in absorbance at 340 nm in 1 min; V is the volume of a reaction solution in mL; 6220 is the molar extinction coefficient of NADPH in L/(mol·cm); and 1 is the optical path distance in cm. One activity unit (U) corresponds to the amount of enzyme required to catalyze the oxidation of 1 μmol NADPH per minute under the above conditions.
(§4) A column used for purification was a nickel affinity column HisTrap FF crude, and purification was achieved through affinity chromatography using a histidine tag on recombinant protein. The nickel column was equilibrated with a solution A first, a crude enzyme solution was loaded, a penetrating peak was further eluted off using the solution A, and after equilibrium, a solution B (20 mM sodium phosphate, 500 mM NaCl, and 1000 mM imidazole, pH 7.4) was used for gradient elution to elute off the recombinant protein bound to the nickel column, so as to obtain the recombinant alcohol dehydrogenase mutant. The purified protein was subjected to activity measurement (CPMK as substrate, and NADPH as coenzyme) and SDS-PAGE analysis. […] The purified alcohol dehydrogenase protein was then replaced into a Tris-HCl (100 mM, pH 7.0) buffer using a Hi Trap Desalting column (GE Healthcare).
(§5) The activity of KpADH at different substrate concentrations and coenzyme concentrations was determined, and a double reciprocal curve was made based on the reciprocal of activity and substrate concentration to calculate kinetic parameters.

[2] = system: O=C(c1ccc(Cl)cc1)c1ccccn1; assay: Kinetic analysis of KpADH mutant M6 with CPMK; settings: other: M6, NADPH, pH 7.0, 30° C.
Experimental: In an embodiment of the present disclosure, the mutant includes the substitution of glycine for glutamic acid at position 214 of the amino acid sequence shown in SEQ ID No. 2, the substitution of cysteine for serine at position 237, the substitution of asparaginate for glutamine at position 136, the substitution of glycine for serine at position 196, and the substitution of valine for phenylalanine at position 161, which is named M6.
as §1, §2, §3, §4, §5

[3] = system: O=C(c1ccc(Cl)cc1)c1ccccn1; assay: Kinetic analysis of KpADH mutant M1 with CPMK; settings: other: M1, NADPH, pH 7.0, 30° C.
Experimental: In an embodiment of the present disclosure, the mutant includes the substitution of glycine for glutamic acid at position 214 of the alcohol dehydrogenase with the amino acid sequence shown in SEQ ID No. 2, which is named M1.
as §1, §2, §3, §4, §5

[4] = system: O=C(c1ccc(Cl)cc1)c1ccccn1; assay: Kinetic analysis of KpADH mutant M3 with CPMK; settings: other: M3, NADPH, pH 7.0, 30° C.
Experimental: In an embodiment of the present disclosure, the mutant includes the substitution of glycine for glutamic acid at position 214 of the alcohol dehydrogenase with the amino acid sequence shown in SEQ ID No. 2, and the substitution of cysteine for serine at position 237, which is named M3.
as §1, §2, §3, §4, §5

[5] = system: O=C(c1ccc(Cl)cc1)c1ccccn1; assay: Kinetic analysis of KpADH mutant M4 with CPMK; settings: other: M4, NADPH, pH 7.0, 30° C.
Experimental: In an embodiment of the present disclosure, the mutant includes the substitution of glycine for glutamic acid at position 214 of the amino acid sequence shown in SEQ ID No. 2, the substitution of cysteine for serine at position 237, and the substitution of asparaginate for glutamine at position 136, which is named M4.
as §1, §2, §3, §4, §5

[6] = Substrate specificity: reduction of prochiral carbonyl compound (Table 2)
Excerpt: The reduction on prochiral carbonyl compounds by the alcohol dehydrogenase mutants obtained in Example 2 was studied, and the studied prochiral carbonyl compounds include (4-chlorophenyl)-(pyridin-2-yl)-methanone (CPMK), phenyl-(pyridin-2-yl)-methanone, (4-chlorophenyl)-(phenyl)-methanone, (4-bromophenyl)-(phenyl)-methanone, (4-fluorophenyl)-(pyridin-2-yl)-methanone, (4-methoxyphenyl)-(phenyl)-methanone, acetophenone, 4-chloroacetophenone and 2-(4-chlorophenyl)acetyl chloride.

[7] = Stereoselectivity analysis of CPMK reduction (chiral liquid chromatography, Table 1); settings: product CPMA from CPMK
Experimental: (§6) In an embodiment of the present disclosure, the (R)- and (S)-CPMA is chromatographed by taking 100 μL reaction solution, adding 500 μL ethyl acetate, shaking for 1-2 min, centrifuging at 12,000 rpm for 2-5 min, placing a supernatant into a centrifuge tube, and after an organic phase is naturally volatilized completely, adding 500 μL chromatographic pure ethanol for chiral liquid chromatography of a conversion rate and an ee value. The specific chromatographic conditions are as follows: Daicel Chiralcel OB-H (5 μm, 250 mm×4.6 mm) liquid chromatography column, mobile phases are n-hexane: ethanol: ethanolamine (90:10:0.01, v/v/v), the flow rate is 1 mL/min, the column temperature is 30° C., the UV detection wavelength is 254 nm, the injection volume is 10 μL, and the retention time for (R)-CPMA and that for (S)-CPMA are 11.14 min and 12.34 min respectively.
Method for determining optical purity ee:
As: molar concentration of (S)-CPMA obtained by liquid chromatography; and AR: molar concentration of (R)-CPMA obtained by liquid chromatography.
as §5

[8] = 20 mL biocatalytic system: asymmetric reduction of CPMK
Experimental: as §6
A 20 mL biocatalytic system was established: 100 mM potassium phosphate buffer (pH 7.0), and the alcohol dehydrogenase mutants M6 and M7 obtained in Example 2 as well as wild KpADH 10 g/L, CPMK 100 mM, 200 mM and 500 mM were added (substrate added in batches). […]

alcohol dehydrogenase KpADH mutant M2 (E214V of SEQ ID No. 2) (Vanderwaltozyma polyspora DSM 70294; E214V)
Km [1]: 574 µM | Vmax [1]: 17.5 µmol/min/mg | kcat [1]: 11.7 s⁻¹ | kcat/Km [1]: 14200 M⁻¹ s⁻¹

alcohol dehydrogenase KpADH mutant M6 (E214G/S237C/Q136N/S196G/F161V of SEQ ID No. 2) (Vanderwaltozyma polyspora DSM 70294; E214G/F161V/Q136N/S196G/S237C)
Km [2]: 1120 µM | Vmax [2]: 25.2 µmol/min/mg | kcat [2]: 20.1 s⁻¹ | kcat/Km [2]: 17900 M⁻¹ s⁻¹

alcohol dehydrogenase KpADH mutant M1 (E214G of SEQ ID No. 2) (Vanderwaltozyma polyspora DSM 70294; E214G)
Km [3]: 520 µM | Vmax [3]: 11.1 µmol/min/mg | kcat [3]: 7.32 s⁻¹ | kcat/Km [3]: 14100 M⁻¹ s⁻¹

alcohol dehydrogenase KpADH mutant M3 (E214G/S237C of SEQ ID No. 2) (Vanderwaltozyma polyspora DSM 70294; E214G/S237C)
Km [4]: 632 µM | Vmax [4]: 9.32 µmol/min/mg | kcat [4]: 6.16 s⁻¹ | kcat/Km [4]: 9740 M⁻¹ s⁻¹

alcohol dehydrogenase KpADH mutant M4 (E214G/S237C/Q136N of SEQ ID No. 2) (Vanderwaltozyma polyspora DSM 70294; E214G/Q136N/S237C)
Km [5]: 861 µM | Vmax [5]: 10.2 µmol/min/mg | kcat [5]: 6.76 s⁻¹ | kcat/Km [5]: 7850 M⁻¹ s⁻¹

B1: KpADH: wild type alcohol dehydrogenase KpADH, amino acid sequence shown in SEQ ID No. 2 (protein)
chain: MSVLISGASGYIAKHIVRVLLEQNYKVIGTVRSQDKADKLLKQYNNPNLSYEIVPEIANLDAFDDIFKKHGKEIKYVIHAASPVNFGAKDLEKDLVIPAINGTKNMFEAIKKYAPDTVERVVMTASYASIMTPHRQNDPTLTLDEETWNPVTEENAYENVFTAYCASKTFAEKEAWKFVKENSDAVKFKLTTIHPSFVFGPQNFDEDVTKKLNETCEIINGLLHAPFDTKVEKTHFSQFIDVRDVAKTHVLGFQKDELINQRLLLCNGAFSQQDIVNVFNEDFPELKGQFPPEDKDTDLNKGVTGCKIDNEKTKKLLAFEFTPFHKTIHDTVYQILHKEGRV
modifications: Protein translated from synthetic DNA
ee value of product ([6]; substrate drawing 1 (CPMK)): 81.9% | ee value of product ([6]; substrate drawing 2): 26.3% | ee value of product ([6]; substrate drawing 3): 71.4% | ee value of product ([6]; substrate drawing 4): 69.2% | ee value of product ([6]; substrate drawing 5): 25.3% | ee value of product ([6]; substrate drawing 6): 14.9% | ee value of product ([6]; substrate drawing 7): 59.2% | ee value of product ([6]; substrate drawing 8): 67.1% | ee value of product ([6]; substrate drawing 9): 77.8% | ee [7]: 82% and 82.5% | ee value of final reduction product ([8]; 20 mL biocatalytic system, enzyme 10 g/L, 30° C., pH 7.5): 82% | Conversion rate ([8]; CPMK 100 mM, reaction time 1 h): 47.76% | Conversion rate ([8]; CPMK 100 mM, reaction time 2 h): 77.9% | Conversion rate ([8]; CPMK 100 mM, reaction time 3 h): 87.1% | Conversion rate ([8]; CPMK 100 mM, reaction time 4 h): 96.5% | Conversion rate ([8]; CPMK 100 mM, reaction time 6 h): 98.7% | Conversion rate ([8]; CPMK 100 mM, reaction time 8 h): 99.6% | Conversion rate ([8]; CPMK 100 mM, reaction time 12 h): >99.9% | Conversion rate ([8]; CPMK 100 mM, reaction time 24 h): >99.9% | Conversion rate ([8]; CPMK 200 mM, reaction time 1 h): 25.6% | Conversion rate ([8]; CPMK 200 mM, reaction time 2 h): 36.9% | Conversion rate ([8]; CPMK 200 mM, reaction time 3 h): 50.5% | Conversion rate ([8]; CPMK 200 mM, reaction time 4 h): 62.8% | Conversion rate ([8]; CPMK 200 mM, reaction time 6 h): 85.3% | Conversion rate ([8]; CPMK 200 mM, reaction time 8 h): 97.4% | Conversion rate ([8]; CPMK 200 mM, reaction time 12 h): 99.4% | Conversion rate ([8]; CPMK 200 mM, reaction time 24 h): 99.7% | Conversion rate ([8]; CPMK 500 mM, reaction time 1 h): 11.7% | Conversion rate ([8]; CPMK 500 mM, reaction time 2 h): 20.1% | Conversion rate ([8]; CPMK 500 mM, reaction time 3 h): 44.8% | Conversion rate ([8]; CPMK 500 mM, reaction time 4 h): 59.6% | Conversion rate ([8]; CPMK 500 mM, reaction time 6 h): 80.2% | Conversion rate ([8]; CPMK 500 mM, reaction time 8 h): 93.2% | Conversion rate ([8]; CPMK 500 mM, reaction time 12 h): 95.6% | Conversion rate ([8]; CPMK 500 mM, reaction time 24 h): 99.2% | time required to achieve a conversion rate close to 99.9% ([8]; CPMK concentration 200 mM): 12 h
